Biological target: HLA-DM, P28067;P28068
Assay: SPR
Conditions: parent DR1/CW trace is at 10 µM, parent: est. 0, read off a plot

response (10 µM DR1-βE87P/CW analyte over immobilised DM) | response (5 µM DR1-βG84PβE87P/CW analyte over immobilised DM) | Substance
50 RU |  | HLA-DR1/CLIP_(102-120)M107W complex (from UniProt P04233) βE87P
 | 270 RU | HLA-DR1/CLIP_(102-120)M107W complex (from UniProt P04233) βG84P; βE87P

Reference: paper PMC5105163
